The data set is described as follows: protein stability index of a GFP-peptide fusion (GPS, HEK-293T) (PSI 1-6); higher = more stable. As to conditions: c terminus: a fixed tail appended.

± gives the standard deviation.
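Further: 24-mer peptide tiles fused after GFP, lentivirally expressed, FACS-sorted into six equal bins by GFP/DsRed ratio, decoded by Illumina sequencing, PSI is the read-weighted mean bin number.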

As to HMVRESKIMEAESQKATRECEKSA [FAN1], the protein stability index worked out at 5.29 ± 0.3 (treatment: DMSO) and 5.24 ± 0.14 (treatment: MLN4924 1 uM, 8 h).
As for HPDSWRAYPFYWAWLPQAKVPFSQ [PI4K2A], the protein stability index reads like this: (treatment: DMSO) 2.5 ± 0.37; (treatment: MLN4924 1 uM, 8 h) 2.02 ± 0.94.
The sequence HPVFYQGTYSQALNDAKRELRFLL [FAF2] returned a protein stability index (treatment: DMSO) of 2.26 ± 0.36 and a protein stability index (treatment: MLN4924 1 uM, 8 h) of 2.15 ± 0.14.
As for HRERVAMHYQMSVTLKYEIKKLIY [JAGN1], the protein stability index is, setting by setting: (treatment: DMSO) 2.71 ± 0.49; (treatment: MLN4924 1 uM, 8 h) 2.92 ± 0.45.
Consider HRGLLTMQLKSPMPSSTTQKDSYQ [SPAG8], for which the protein stability index by setting is: (treatment: DMSO) 3.87 ± 0.25; (treatment: MLN4924 1 uM, 8 h) 4 ± 0.21.
Consider HRQSFGTNSDVLAQQFALMAPLLF [DCAF4], for which the protein stability index was 2.31 ± 0.28 (treatment: DMSO) and 2.36 ± 0.27 (treatment: MLN4924 1 uM, 8 h).
Regarding HRRELESSGAGSSPPAAPCPPPPG [ZBED3], the protein stability index runs as follows: (treatment: DMSO) 5.12 ± 0.29; (treatment: MLN4924 1 uM, 8 h) 5.24 ± 0.16.
In the same order, the values of HTEDFQKEEGTVNGASWHTVAGSL [CPXM2] are 4.63 ± 0.069 and 4.76 ± 0.38.
Consider HTHRAHTVVPLDDATQEYKEKLQK [TRIM39], for which the protein stability index came out at 5.39 ± 0.2 (treatment: DMSO) and 5.3 ± 0.35 (treatment: MLN4924 1 uM, 8 h).
With HTTLQCLAARVIVNHRIYYKGHIP [FEM1C], the protein stability index (treatment: DMSO) stood at 2.43 ± 0.17 and the protein stability index (treatment: MLN4924 1 uM, 8 h) came out at 2.43 ± 0.25.
In the same order, the values of HVGWLLVRKHPAVKEKGSTLDLSD [SCD] are 2.3 ± 0.26 and 2.48 ± 0.45.
On to IAATELEKEESRREAEKQNYLAEH [TNNI2], for which the protein stability index (treatment: DMSO) worked out at 5.3 ± 0.25 and the protein stability index (treatment: MLN4924 1 uM, 8 h) was 5.37 ± 0.26.
Turning to IAELLEVFDLRMMVANILNNEAFM [RHOBTB2], the protein stability index is, setting by setting: (treatment: DMSO) 3.36 ± 0.2; (treatment: MLN4924 1 uM, 8 h) 2.98 ± 0.55.
For ICQKTATKKRKTFDSSRQRAEGTD [ZC2HC1A], the protein stability index is, setting by setting: (treatment: DMSO) 4.8 ± 0.1; (treatment: MLN4924 1 uM, 8 h) 4.67 ± 0.53.
In the same order, the values of ICSLICLLIYTVKIRRFNKAKPEP [TMEM192] are 2.24 ± 0.52 and 2.44 ± 0.63.
In the same order, the values of IDEVRTQYEEIALKSKAEAEALYQ [KRT71] are 4.77 ± 0.29 and 5.01 ± 0.26.
In the same order, the values of IDVEALQVAFGSLYRDDVLIKPSR [GMCL1] are 2.37 ± 0.16 and 2.48 ± 0.37.
Regarding IEELEREAERKIIEENITSAAPSN [SRPK2], the protein stability index by setting is: (treatment: DMSO) 5.34 ± 0.15; (treatment: MLN4924 1 uM, 8 h) 5.17 ± 0.25.
In the case of IEETYSKAMAKLSKLASNGTPMGT [FCHO1], the protein stability index by setting is: (treatment: DMSO) 3.4 ± 0.073; (treatment: MLN4924 1 uM, 8 h) 3.78 ± 0.29.
In turn, IEKEYQPHVIVSTTGPNPFTTLTD [ADD1] returned a protein stability index (treatment: DMSO) of 3.74 ± 0.25 and a protein stability index (treatment: MLN4924 1 uM, 8 h) of 3.9 ± 0.23.
In the same order, the values of IERLTREVEATRRALIDRMVNLHQ [DDIT3] are 2.45 ± 0.18 and 2.61 ± 0.24.
For the sequence IFMGYQNVEDEAETKKVLGLQDTI [PALM], the protein stability index reads like this: (treatment: DMSO) 3.27 ± 0.26; (treatment: MLN4924 1 uM, 8 h) 3.35 ± 0.3.
As for IFNVAIPRFHMACPTFRVSIARLE [FBXO3], the protein stability index amounted to 2.19 ± 0.57 (treatment: DMSO) and 2.2 ± 0.47 (treatment: MLN4924 1 uM, 8 h).
On to IHGLPTEGYQALYHAVVEPMLWNP [C22orf31], for which the protein stability index is, setting by setting: (treatment: DMSO) 2.19 ± 0.11; (treatment: MLN4924 1 uM, 8 h) 2.13 ± 0.21.
IIDNTNLHAWEMKPYAVMVFQTEQ [N4BP2L1] gave a protein stability index (treatment: DMSO) of 2.15 ± 0.25 and a protein stability index (treatment: MLN4924 1 uM, 8 h) of 2.09 ± 0.18.
Regarding IILTNQSVREVTQIKCIELKSELG [P2RY14], the protein stability index (treatment: DMSO) is 2.14 ± 0.23 and the protein stability index (treatment: MLN4924 1 uM, 8 h) came to 2.27 ± 0.19.
For IISAHIHPVCSLCWSRDGHKLVSA [RBBP5], the protein stability index runs as follows: (treatment: DMSO) 2.45 ± 0.37; (treatment: MLN4924 1 uM, 8 h) 2.14 ± 0.24.
Turning to IIWFSFELVVRFFACPSKTDFFKN [KCNA1], the protein stability index came out at 2.88 ± 0.37 (treatment: DMSO) and 3.04 ± 0.36 (treatment: MLN4924 1 uM, 8 h).
As for IKENAQDTMRQINKKGFWSYGPVI [TOR1AIP2], the protein stability index is 2.51 ± 0.45 (treatment: DMSO) and 2.52 ± 0.26 (treatment: MLN4924 1 uM, 8 h).
Consider IKKPESFSKQIVLRGKSIKRAPGE [NEUROD6], for which the protein stability index is 3.9 ± 0.12 (treatment: DMSO) and 4 ± 0.22 (treatment: MLN4924 1 uM, 8 h).
As for IKPSENHYSLLTSQPLDREATSHY [PCDHGC5], the protein stability index is, setting by setting: (treatment: DMSO) 3.87 ± 0.062; (treatment: MLN4924 1 uM, 8 h) 3.93 ± 0.38.
In the case of ILENRPPGSLLCTVAASDPDTGDN [PCDHGC5], the protein stability index came to 4.99 ± 0.12 (treatment: DMSO) and 5.06 ± 0.13 (treatment: MLN4924 1 uM, 8 h).
As to ILLQDHIRDLDVVVVSVAGAFRKG [ATL3], the protein stability index reads like this: (treatment: DMSO) 2.94 ± 0.34; (treatment: MLN4924 1 uM, 8 h) 2.57 ± 0.68.
As for ILRSQLVTLLVRGVCYSESQSSAS [CLCN6], the protein stability index amounted to 2.88 ± 0.38 (treatment: DMSO) and 2.95 ± 0.39 (treatment: MLN4924 1 uM, 8 h).
ILSLEGGYNLRALAEGVSASLHTL [HDAC6] yielded a protein stability index (treatment: DMSO) of 2.15 ± 0.79 and a protein stability index (treatment: MLN4924 1 uM, 8 h) of 2.12 ± 0.39.
Turning to ILTERVSLPFKPFAIILPILLNIR [MIA2], the protein stability index (treatment: DMSO) was 2.25 ± 0.55 and the protein stability index (treatment: MLN4924 1 uM, 8 h) was 3.79 ± 0.64.

These data come from the supplement of paper PMC10567573.
